Data published in patent US20220403048A1 (CANCER RESEARCH TECHNOLOGY, published 2022).
Residue numbers refer to the chain shown, from its start.

T1: recombinant human trimeric ARG2 enzyme (construct not given) (human, UniProt P78540 23-354)
T1 sequence (looked up): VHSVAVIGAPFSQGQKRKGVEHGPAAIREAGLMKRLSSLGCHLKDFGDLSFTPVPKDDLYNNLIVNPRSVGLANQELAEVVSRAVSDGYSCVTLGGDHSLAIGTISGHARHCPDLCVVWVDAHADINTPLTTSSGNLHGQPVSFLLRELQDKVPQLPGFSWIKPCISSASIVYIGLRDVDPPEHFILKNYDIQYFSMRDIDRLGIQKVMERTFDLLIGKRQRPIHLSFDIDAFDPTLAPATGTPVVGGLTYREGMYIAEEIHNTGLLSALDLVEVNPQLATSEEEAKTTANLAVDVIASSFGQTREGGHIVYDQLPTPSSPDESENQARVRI

T2: biotinylated recombinant human trimeric ARG2 enzyme (Avi-huARG2-His10) (human, UniProt P78540 23-354, biotinylated)
T2 construct: also called avi-Arg2-His10; bio-ARG2
T2 chain: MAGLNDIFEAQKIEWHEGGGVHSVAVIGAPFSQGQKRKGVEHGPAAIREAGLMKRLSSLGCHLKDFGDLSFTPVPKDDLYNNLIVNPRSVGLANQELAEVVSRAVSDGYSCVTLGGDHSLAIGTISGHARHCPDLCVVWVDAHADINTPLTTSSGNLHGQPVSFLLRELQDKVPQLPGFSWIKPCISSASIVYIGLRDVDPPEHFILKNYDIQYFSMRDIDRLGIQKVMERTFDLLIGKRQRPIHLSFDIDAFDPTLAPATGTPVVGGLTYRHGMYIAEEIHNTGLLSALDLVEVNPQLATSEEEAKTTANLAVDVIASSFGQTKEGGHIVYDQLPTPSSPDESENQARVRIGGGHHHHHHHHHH

B1: C0021017 scFv (scFv, V domains shown)
VH: EVQLLESGGGLVQPGGSLRLSCAASGFTFYPEYELWVRQAPGKGLEWVSAISGSGGSTYYADSVKGRFTISRDNSKNTLYLQMNSLRAEDTAVYYCARLRADLGLYMDLWGRGTLVTVSS
VL: QSVLTQPPSVSAAPGQKVTISCSGSSSNIGNHYVSWYQQLPGTAPKLLIYDNSERPSGIPDRFSGSKSGTSATLGITGLQTGDEADYYCGTWDSSLSALVFGGGTKLTVL
notes: scFv
B2: C0021022 scFv (scFv, V domains shown)
VH: EVQLLESGGGLVQPGGSLRLSCAASGFTFSSYAMSWVRQAPGKGPEWVSAISGFSPYYADSVKGRFTISRDNSKNTLYLQMNSLRAEDTAVYYCARLRADLGLYMDLWGRGTLVTVSS
VL: B1 VL
notes: scFv
B3: C0021135 scFv (scFv, V domains shown)
VH: B1 VH with T28A, Y30R, P31Y, E34I, L35Q
VL: B1 VL with P45H
notes: scFv
B4: C0021096 scFv (scFv, V domains shown)
VH: B2 VH with P45L, F54Y, P56G
VL: B1 VL with D51N, N52T, S53E, E54R, P56M
notes: scFv
B5: C0021092 scFv (scFv, V domains shown)
VH: B1 VH with Y30S, P31R, E32Y, Y33A, E34M, L35S, I51H, S52T, G53H, G55P
VL: B1 VL with D51N, N52S, S53V, E54A
notes: scFv
B6: C0021065 scFv (scFv, V domains shown)
VH: B2 VH with K74R
VL: B1 VL with N52T, S53D, E54H, R55M, P56A
notes: scFv
B7: C0021021 scFv (scFv, V domains shown)
VH: B1 VH with Y30S, P31S, E32Y, Y33A, E34M, L35S, A50S, S52L, G53F, G55P
VL: B1 VL
notes: scFv
B8: C0021061 scFv (scFv, V domains shown)
VH: EVQLLESGGGLVQPGGSLRLSCAASGFTFSSYAMSWVRQAPGKGLEWVSAKPTDAGSTYYADSVKGRFTISRDNSKNTLYLQMNSLRAEDTAVYYCARLRADLGLYMDLWGRGTLVTVSS
VL: B1 VL with D51N, N52T, S53V, E54Y, R55P, P56K
notes: scFv
B9: C0021098 scFv (scFv, V domains shown)
VH: B8 VH with A50S, K51S, P52T, T53Y, D54G
VL: B1 VL with D51N, N52S, S53D, E54A, R55P, P56M
notes: scFv
B10: C0021139 scFv (scFv, V domains shown)
VH: B1 VH with Y30Q, P31Y, E32D, E34Q, L35V
VL: B1 VL with P56T, S94E, S95L, L96T, A98N
notes: scFv
B11: C0021101 scFv (scFv, V domains shown)
VH: B2 VH
VL: B1 VL with D51N, S53R, E54S, R55P, P56T
notes: scFv
B12: C0021129 scFv (scFv, V domains shown)
VH: B2 VH with Q13R, P45L, Y57F
VL: B1 VL with G75D, S94E, S95T, L96A, S97A, A98E
notes: scFv
B13: C0021089 scFv (scFv, V domains shown)
VH: B1 VH with Y30P, P31Y, E34W, L35S, E89Q
VL: B1 VL with S94P, S95T, L96V, A98R
notes: scFv
B14: C0021131 scFv (scFv, V domains shown)
VH: B1 VH with Y30P, P31Y, E32D, E34M, L35G
VL: B1 VL with S94E, S95L, L96T, A98N
notes: scFv
B15: C0021118 scFv (scFv, V domains shown)
VH: B8 VH with K51S, P52L, D54N, A55P
VL: B1 VL with G90A, W92Y, S94T, S95N
notes: scFv
B16: C0021097 scFv (scFv, V domains shown)
VH: B8 VH with K51I, P52S, T53Y, D54H, A55P
VL: B1 VL with D51N, N52T, S53F, E54A
notes: scFv
B17: C0021032 scFv (scFv, V domains shown)
VH: B8 VH with K51Y, P52G, T53Y, D54G, A55I
VL: B1 VL
notes: scFv
B18: C0021124 scFv (scFv, V domains shown)
VH: B8 VH with K51I, P52S, T53Y, D54H, A55P, M83I
VL: B1 VL with P7L, S95D, L96R, S97V, A98N, V100E
notes: scFv
B19: C0021141 Fab (Fab, V domains shown)
VH: B1 VH with E32D, Y33P, E34Q, L35G, I51Y, S52G, G53Y, S54G, G55I
VL: B1 VL with K17E, G30D
notes: Human Fab
B20: C0021096 Fab (Fab, V domains shown)
VH: B2 VH with P45L, F54Y, P56G
VL: B1 VL with D51N, N52T, S53E, E54R, P56M
notes: Human Fab
B21: C0021142 Fab (Fab, V domains shown)
VH: B8 VH with K51H, P52T, T53H, D54S, A55P
VL: B1 VL
notes: Human Fab
B22: C0021118 Fab (Fab, V domains shown)
VH: B8 VH with K51S, P52L, D54N, A55P
VL: B1 VL with G90A, W92Y, S94T, S95N
notes: Human Fab
B23: C0021021 Fab (Fab, V domains shown)
VH: B8 VH with A50S, K51I, P52L, T53F, D54S, A55P
VL: B1 VL
notes: Human Fab
B24: C0021032 Fab (Fab, V domains shown)
VH: B8 VH with K51Y, P52G, T53Y, D54G, A55I
VL: B1 VL
notes: Human Fab
B25: C0021097 Fab (Fab, V domains shown)
VH: B8 VH with K51I, P52S, T53Y, D54H, A55P
VL: B1 VL with D51N, N52T, S53F, E54A
notes: Human Fab
B26: C0021101 Fab (Fab, V domains shown)
VH: B2 VH
VL: B1 VL with D51N, S53R, E54S, R55P, P56T
notes: Human Fab

Biological target: T1, recombinant human trimeric ARG2 enzyme …
Test: cell-based or functional assay

Trimeric human ARG2 EIA IC50 | Binder
226 nM | B1
106 nM | B2
220 nM | B3
57.8 nM | B4
159 nM | B5
143 nM | B6
151 nM | B7
110 nM | B8
134 nM | B9
188 nM | B10
64.8 nM | B11
313 nM | B12
71.5 nM | B13
251 nM | B14
84.1 nM | B15
99.1 nM | B16
211 nM | B17
375 nM | B18

Biological target: T2, biotinylated recombinant human trimeric …
Test: HTRF epitope competition, scFv titrated, competitor C0020187 IgG, on biotinylated human trimeric ARG2

IC50 | Binder
122 nM | B1
65.9 nM | B2
52 nM | B3
35.2 nM | B4
130 nM | B5
74.7 nM | B6
58.7 nM | B7
101 nM | B8
48.3 nM | B9
40.1 nM | B10
40.8 nM | B11
45 nM | B12
133 nM | B13
45.7 nM | B14
41.7 nM | B15
27.5 nM | B16
67 nM | B17
50.5 nM | B18

Biological target: T2, biotinylated recombinant human trimeric …
Test: BLI (OctetRED), biotinylated ARG2 on streptavidin, Fab as analyte
Procedure: An Octet Kinetics Buffer (PBS containing 0.01% BSA and 0.002% Tween20) is typically used as the diluent buffer for the analyte samples and as the flow buffer during the dissociation phase. The experimental data is recorded over time as shift in interference pattern (nm) over time, which is directly proportional to the optical thickness at the biosensor tip, which in turn is an approximate measure of the mass of analyte bound. The proprietary Octet Data Analysis software package can then be used to process data and fit binding models to the data sets. Returned association (kₐ, M⁻¹ s⁻¹) and dissociation (kd, s⁻¹) rate constants allow calculation of dissociation (KD, M) affinity constants.
Typically, an analyte titration range of 1.8 to 120 nM was used.

Kd | koff | kon | Binder
3.33 nM | 0.00108 s⁻¹ | 326000 M⁻¹ s⁻¹ | B19
3.48 nM | 0.00154 s⁻¹ | 441000 M⁻¹ s⁻¹ | B20
2.77 nM | 0.0011 s⁻¹ | 399000 M⁻¹ s⁻¹ | B21
8.23 nM | 0.00114 s⁻¹ | 139000 M⁻¹ s⁻¹ | B22
4.24 nM | 0.002 s⁻¹ | 473000 M⁻¹ s⁻¹ | B23
5.33 nM | 0.00228 s⁻¹ | 427000 M⁻¹ s⁻¹ | B24
4.95 nM | 0.00146 s⁻¹ | 295000 M⁻¹ s⁻¹ | B25
3.41 nM | 0.00107 s⁻¹ | 314000 M⁻¹ s⁻¹ | B26
